Series [1] concerns the target T1, RelA homodimer (UniProt Q04206 1-551). Kind of series: EMSA; EMSA: 10 mM Tris-HCl pH 7.5, 50 mM NaCl, 10% glycerol, 1% NP-40, 1 mM EDTA, 0.1 mg/mL salmon sperm DNA, room temp; BLI: 25 mM Tris-HCl pH 7.5, 150 mM NaCl, 0.02% Tween 20, 0.1 mg/mL salmon sperm DNA, 1 mM DTT. The note with it: protein: recombinant; tags: His; chain copies: 2; label: 32P. (In general: Mobility shift assays separate free from complexed probe on a gel.)

Series [2] addresses T2, p50:RelA heterodimer, RelA chain;p50:RelA heterodimer, p50 chain (;, UniProt Q04206;P19838 1-551;1-435, |). The series is described as above. The note with it: protein: recombinant;recombinant; tags: His;His; copies: 1;1; label: 32P.
The target of series [3] is T3, Nfatc1 (affinity-purified) (UniProt O95644 1-698).
T3 sequence: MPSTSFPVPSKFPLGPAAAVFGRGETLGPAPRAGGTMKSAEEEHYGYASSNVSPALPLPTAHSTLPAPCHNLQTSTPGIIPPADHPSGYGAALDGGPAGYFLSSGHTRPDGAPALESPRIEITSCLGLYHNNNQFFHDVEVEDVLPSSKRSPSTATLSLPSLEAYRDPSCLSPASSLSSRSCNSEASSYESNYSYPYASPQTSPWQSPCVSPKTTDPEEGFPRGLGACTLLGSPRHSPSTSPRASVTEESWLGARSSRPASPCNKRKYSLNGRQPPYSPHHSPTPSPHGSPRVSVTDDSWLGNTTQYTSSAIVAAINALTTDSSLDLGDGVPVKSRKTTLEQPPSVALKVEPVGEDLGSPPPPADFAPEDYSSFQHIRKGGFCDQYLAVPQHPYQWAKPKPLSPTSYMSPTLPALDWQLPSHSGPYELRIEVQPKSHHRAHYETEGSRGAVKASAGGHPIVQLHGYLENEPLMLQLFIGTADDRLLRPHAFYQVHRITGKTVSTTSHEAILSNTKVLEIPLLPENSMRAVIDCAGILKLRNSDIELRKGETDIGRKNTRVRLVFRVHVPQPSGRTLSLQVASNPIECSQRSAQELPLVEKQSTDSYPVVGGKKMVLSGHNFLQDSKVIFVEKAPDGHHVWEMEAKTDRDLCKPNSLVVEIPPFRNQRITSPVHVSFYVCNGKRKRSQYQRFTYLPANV
The series is described as above. The following applies: protein: recombinant; label: 32P.

Series [4] has as its target T4, Tead3 (affinity-purified) (UniProt Q99594 1-435). Described as above. The following applies: protein: recombinant; label: 32P.
Series [5] deals with T4, Tead3 (affinity-purified). Kind of series: EMSA; weak site only; EMSA: 10 mM Tris-HCl pH 7.5, 50 mM NaCl, 10% glycerol, 1% NP-40, 1 mM EDTA, 0.1 mg/mL salmon sperm DNA, room temp; BLI: 25 mM Tris-HCl pH 7.5, 150 mM NaCl, 0.02% Tween 20, 0.1 mg/mL salmon sperm DNA, 1 mM DTT. The following applies: protein: recombinant; label: 32P.
For series [6], the target named is T1, RelA homodimer. Description: EMSA; binding retained; EMSA: 10 mM Tris-HCl pH 7.5, 50 mM NaCl, 10% glycerol, 1% NP-40, 1 mM EDTA, 0.1 mg/mL salmon sperm DNA, room temp; BLI: 25 mM Tris-HCl pH 7.5, 150 mM NaCl, 0.02% Tween 20, 0.1 mg/mL salmon sperm DNA, 1 mM DTT. The following applies: protein: recombinant; tags: His; chain copies: 2; label: 32P.
Series [7] concerns the target T2, p50:RelA heterodimer, RelA …. Described as above. The following applies: protein: recombinant;recombinant; tags: His;His; copies: 1;1; label: 32P.
Series [8] deals with T5, Nfat5 RHR WT (UniProt O94916 264-544).
T5 sequence: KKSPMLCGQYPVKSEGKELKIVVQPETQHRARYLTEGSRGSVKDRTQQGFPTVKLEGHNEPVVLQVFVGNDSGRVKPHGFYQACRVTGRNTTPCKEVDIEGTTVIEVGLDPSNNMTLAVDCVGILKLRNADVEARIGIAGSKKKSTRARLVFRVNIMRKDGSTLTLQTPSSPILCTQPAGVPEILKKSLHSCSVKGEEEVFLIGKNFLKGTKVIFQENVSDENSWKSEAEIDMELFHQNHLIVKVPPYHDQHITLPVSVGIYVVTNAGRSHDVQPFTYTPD
Kind of series: EMSA; no observable binding; EMSA: 10 mM Tris-HCl pH 7.5, 50 mM NaCl, 10% glycerol, 1% NP-40, 1 mM EDTA, 0.1 mg/mL salmon sperm DNA, room temp; BLI: 25 mM Tris-HCl pH 7.5, 150 mM NaCl, 0.02% Tween 20, 0.1 mg/mL salmon sperm DNA, 1 mM DTT. The note with it: protein: recombinant; chain copies: 2; label: 32P.

For series [9], the target named is T6, Nfat5 RHR mutant (UniProt O94916 264-544, R295S;Y296S).
T6 sequence: T5 sequence with R32S, Y33S
The description is as above. The note with it: protein: recombinant; chain copies: 2; label: 32P.

The target in series [10] is T1, RelA homodimer. Kind of series: EMSA; no discernible effect of mutation; EMSA: 10 mM Tris-HCl pH 7.5, 50 mM NaCl, 10% glycerol, 1% NP-40, 1 mM EDTA, 0.1 mg/mL salmon sperm DNA, room temp; BLI: 25 mM Tris-HCl pH 7.5, 150 mM NaCl, 0.02% Tween 20, 0.1 mg/mL salmon sperm DNA, 1 mM DTT. The following applies: protein: recombinant; tags: His; chain copies: 2; label: 32P.
Series [11] deals with T2, p50:RelA heterodimer, RelA …. Described as above. The following applies: protein: recombinant;recombinant; tags: His;His; copies: 1;1; label: 32P.
In series [12] the target is T4, Tead3 (affinity-purified). Description: EMSA; strong site only; EMSA: 10 mM Tris-HCl pH 7.5, 50 mM NaCl, 10% glycerol, 1% NP-40, 1 mM EDTA, 0.1 mg/mL salmon sperm DNA, room temp; BLI: 25 mM Tris-HCl pH 7.5, 150 mM NaCl, 0.02% Tween 20, 0.1 mg/mL salmon sperm DNA, 1 mM DTT. The following applies: protein: recombinant; label: 32P.

These results are taken from publication PMC12507517, “Teamwork of clustered low-affinity κB sites and accessory factors regulates transcriptional strength of NF-κB RelA dimers”.

Where a chain is given by its changes, count along the chain named.

T4 sequence (Q99594 whole entry): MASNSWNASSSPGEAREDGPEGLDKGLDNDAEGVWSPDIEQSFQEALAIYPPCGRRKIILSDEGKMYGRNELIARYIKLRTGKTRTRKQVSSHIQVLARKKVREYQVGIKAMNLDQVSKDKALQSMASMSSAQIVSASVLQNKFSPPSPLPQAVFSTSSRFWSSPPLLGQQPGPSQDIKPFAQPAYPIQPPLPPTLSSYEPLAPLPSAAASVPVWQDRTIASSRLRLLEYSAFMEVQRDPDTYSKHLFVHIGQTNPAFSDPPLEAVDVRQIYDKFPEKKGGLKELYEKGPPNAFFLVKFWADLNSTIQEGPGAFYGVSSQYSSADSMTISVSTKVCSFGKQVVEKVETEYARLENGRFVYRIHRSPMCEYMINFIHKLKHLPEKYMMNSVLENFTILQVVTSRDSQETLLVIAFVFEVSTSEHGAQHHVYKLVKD
T2 sequence (Q04206 whole entry, chain 1 of 2): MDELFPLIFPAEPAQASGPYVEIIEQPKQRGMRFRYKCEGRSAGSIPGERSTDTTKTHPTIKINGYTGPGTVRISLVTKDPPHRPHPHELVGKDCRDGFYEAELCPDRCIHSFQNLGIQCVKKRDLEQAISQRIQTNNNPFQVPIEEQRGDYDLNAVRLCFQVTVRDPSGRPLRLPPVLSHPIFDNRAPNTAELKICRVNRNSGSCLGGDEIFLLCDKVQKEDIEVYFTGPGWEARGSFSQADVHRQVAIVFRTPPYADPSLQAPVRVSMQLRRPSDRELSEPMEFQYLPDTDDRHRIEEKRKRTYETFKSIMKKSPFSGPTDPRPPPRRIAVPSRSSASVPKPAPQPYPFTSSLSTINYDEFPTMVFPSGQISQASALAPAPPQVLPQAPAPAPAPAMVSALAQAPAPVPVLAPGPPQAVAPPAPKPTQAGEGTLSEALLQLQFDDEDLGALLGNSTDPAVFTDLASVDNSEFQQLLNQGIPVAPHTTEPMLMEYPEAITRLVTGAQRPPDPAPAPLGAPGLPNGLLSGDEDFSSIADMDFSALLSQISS
T2 sequence (P19838 1-435, chain 2 of 2): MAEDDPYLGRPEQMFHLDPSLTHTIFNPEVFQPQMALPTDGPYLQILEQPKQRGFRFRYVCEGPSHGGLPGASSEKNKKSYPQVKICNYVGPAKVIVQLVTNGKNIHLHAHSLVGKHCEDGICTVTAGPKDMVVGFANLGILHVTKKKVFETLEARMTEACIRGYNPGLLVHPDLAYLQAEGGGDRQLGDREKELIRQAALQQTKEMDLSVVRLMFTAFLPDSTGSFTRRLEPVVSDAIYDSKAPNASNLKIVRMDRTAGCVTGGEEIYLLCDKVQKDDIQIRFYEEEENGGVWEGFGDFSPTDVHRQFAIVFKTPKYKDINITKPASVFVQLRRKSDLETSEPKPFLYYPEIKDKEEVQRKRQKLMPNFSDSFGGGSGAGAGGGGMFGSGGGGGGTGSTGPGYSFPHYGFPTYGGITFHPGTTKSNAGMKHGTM
T1 sequence (Q04206 whole entry): as the sequence (Q04206 whole entry, chain 1 of 2) above

B1: 2DM Cxcl2 probe (both sites mutated) (dsDNA)
DNA 1: TCGACATGAGGGGACCCTGAGCTCAGCTAATTTGACTGGTCCCCGGGCTTTTGGAG
DNA 2: CTCCAAAAGCCCGGGGACCAGTCAAATTAGCTGAGCTCAGGGTCCCCTCATGTCGA
For B1, the binding result in series [1], in [2], in series [3] and in series [4] was “no binding” throughout.

B2: 2ΔS Cxcl2 probe (strong site mutated) (dsDNA)
DNA 1: B1 DNA 1 with G53C, G54C
DNA 2: B1 DNA 2 with C3G, C4G
On to B2, for which the binding result in [5] is on record as “no binding”; in series [6], “binds”; in series [7] it was “binds”; in [3] it was “binds”.

B3: Nfat EMSA probe (dsDNA)
DNA 1: B1 DNA 1 with C27G, T28G, G34C, A35C, G53C, G54C
DNA 2: B1 DNA 2 with C3G, C4G, T22G, C23G, A29C, G30C
On to B3, for which the binding result in series [8] and in series [9] was “no binding” throughout.

B4: 2ΔW Cxcl2 probe (weak site mutated) (dsDNA)
DNA 1: B1 DNA 1 with C27G, T28G, G34C, A35C
DNA 2: B1 DNA 2 with T22G, C23G, A29C, G30C
Take B4: the binding result in [10], in series [11], in [12] and in series [3] was “binds” each time.

B5: 2WT Cxcl2 probe (dsDNA)
DNA 1: B1 DNA 1 with C27G, T28G, G34C, A35C, G53C, G54C
DNA 2: B1 DNA 2 with C3G, C4G, T22G, C23G, A29C, G30C
In the case of B5, the binding result in series [3] and in [4] was “binds” throughout.
